The values that follow are results of earlier work, collected in patent US10421954B2, “Hybrid polymers, pharmaceutical compositions and methods of synthesizing the same” (New York University, priority 2013, dated 2019).

The conditions of the data set: literature value (ref. 25) for marketed PTH (1-34) (Forteo).

With `CC[C@H](C)[C@H](NC(=O)[C@H](CCC(=O)O)NC(=O)[C@H](CO)NC(=O)[C@@H](NC(=O)[C@@H](N)CO)C(C)C)C(=O)N[C@@H](CCC(N)=O)C(=O)N[C@@H](CC(C)C)C(=O)N[C@@H](CCSC)C(=O)N[C@@H](Cc1cnc[nH]1)C(=O)N[C@@H](CC(N)=O)C(=O)N[C@@H](CC(C)C)C(=O)NCC(=O)N[C@@H](CCCCN)C(=O)N[C@@H](Cc1cnc[nH]1)C(=O)N[C@@H](CC(C)C)C(=O)N[C@@H](CC(N)=O)C(=O)N[C@@H](CO)C(=O)N[C@@H](CCSC)C(=O)N[C@@H](CCC(=O)O)C(=O)N[C@@H](CCCN=C(N)N)C(=O)N[C@H](C(=O)N[C@@H](CCC(=O)O)C(=O)N[C@@H](Cc1c[nH]c2ccccc12)C(=O)N[C@@H](CC(C)C)C(=O)N[C@@H](CCCN=C(N)N)C(=O)N[C@@H](CCCCN)C(=O)N[C@@H](CCCCN)C(=O)N[C@@H](CC(C)C)C(=O)N[C@@H](CCC(N)=O)C(=O)N[C@@H](CC(=O)O)C(=O)N[C@H](C(=O)N[C@@H](Cc1cnc[nH]1)C(=O)N[C@@H](CC(N)=O)C(=O)N[C@@H](Cc1ccccc1)C(=O)O)C(C)C)C(C)C` [PTH (1-34), parathyroid hormone 1-34], the half-life in serum was around 5 min.
